Experimental data taken from patent US20230210968A1, “RIBONUCLEOPROTEIN APPROACH TO BOOST THE STING SIGNALING FOR CANCER IMMUNOTHERAPY” (MASSACHUSETTS INSTITUTE OF TECHNOLOGY, priority 2020, published 2023).
Numbering of substitutions follows the chain as printed. Names and notes keep the numbering of the source.

Key:
[1] = system: STINGΔTM-induced STING signaling in HEK293T cells; test: Interferon activity in HEK293T cells pretreated with chemical inhibitors, then cGAMP-STINGΔTM; format: cell-based, human; settings: increasing inhibitor concentrations before cGAMP-STINGΔTM treatment
Description: For the HEK293T cells, a reporter derivative from this cell line was first generated by transfecting pGL4.45[luc2P/ISRE/Hygro] (Promega company) and stably selected in 200 μg/ml hydromycin. The pGL4.45[luc2P/ISRE/Hygro] vector contains five copies of an interferon-stimulated response element (ISRE) that drives transcription of the luciferase reporter gene luc2P (Photinus pyralis). luc2p is a synthetically-derived luciferase sequence with humanized codon optimization that is designed for high expression and reduced anomalous transcription. The luc2P gene contains hPEST, a protein destabilization sequence, which allows luc2P protein levels to respond more quickly than those of […] to induction of transcription. […] Commercial transfection reagent TranslT-X2TM was used to help transfection (2 μg pDNA mixed with 4 μL TranslT-X2TM in 250 μL Opti-MEM media for each 6-well). […] Transfected cells were also harvested for western blotting.

[2] = system: MC38 cells; test: Therapeutic treatment study, MC38 colon cancer model; format: in vivo, C57BL/6 mice; settings: intratumoral, 100 μg protein and/or 2.5 μg cGAMP, days 7, 14, 21, 28, 35
Description: A therapeutic treatment study with an MC38 colon cancer model was then performed. […] The tumor size and survival were monitored on a schedule similar to that of the prophylactic study.

[3] = Transmission electron microscopy particle size; settings: in PBS
[4] = molecular target: the molecule itself; test: FPLC size exclusion, cGAMP titration; self-association
[5] = system: intracellular trafficking of the tetrameric complex (EEA1, TBK1, Golgi apparatus, LAMP1); test: Immunocytochemistry / confocal microscopy of intracellular trafficking; format: cell-based
Description: Immunocytochemistry: Transfection and immune staining were performed in Millicell® EZ chamber slides (Millipore Sigma, Temecula, Calif., USA). […] Cells were imaged with an Inverted Olympus IX83 microscope equipped with a Hamamatsu ImagEM high sensitivity camera at the Swanson Biotechnology Center (MIT).

[6] = molecular target: the molecule itself; test: FPLC size exclusion with cGAMP; self-association
[7] = tetrameric complex, 6 h post-transfection

## O=C(NCCCNc1nc(Nc2cccc(CN3CCOCC3)c2)ncc1C1CC1)C1CCC1 [MRT, MRT67307]
[1]
  interferon activity after inhibitor pretreatment: decrease with increasing concentrations

## CCN(CC)CCCC(C)Nc1ccnc2cc(Cl)ccc12 (stereo not shown) [CQ, chloroquine]
[1]
  interferon activity after inhibitor pretreatment: increased interferon activity

## CO/C1=C\C(C)=C\[C@@H](C)[C@@H](O)[C@@H](C)C/C(C)=C/C=C/[C@H](OC)[C@@H]([C@@H](C)[C@@H](O)[C@H](C)[C@@]2(O)C[C@@H](O)[C@H](C)[C@@H](C(C)C)O2)OC1=O [BafA1, bafilomycin A1]
[1]
  interferon activity after inhibitor pretreatment: decreasing activity observed with increasing concentrations

## C[C@H]1CCC/C=C/[C@@H]2C[C@H](O)C[C@H]2[C@H](O)/C=C/C(=O)O1 [BFA, brefeldin A]
[1]
  interferon activity after inhibitor pretreatment: insignificant effect

## Nc1nc2c(ncn2[C@@H]2O[C@@H]3COP(=O)(O)O[C@H]4[C@@H](O)[C@H](n5cnc6c(N)ncnc65)O[C@@H]4COP(=O)(O)O[C@@H]2[C@@H]3O)c(=O)[nH]1 [cGAMP, 2′3′ cyclic guanosine monophosphate-adenosine monophosphate]
[2]
  tumor burden: significantly reduced tumor burden

B1: mSTINGΔTM (mouse STING amino acids 138-378) (other)
chain: LTPAEVSAVCEEKKLNVAHGLAWSYYIGYLRLILPGLQARIRMFNQLHNNMLSGAGSRRLYILFPLDCGVPDNLSVVDPNIRFRDMLPQQNIDRAGIKNRVYSNSVYEILENGQPAGVCILEYATPLQTLFAMSQDAKAGFSREDRLEQAKLFCRTLEEILEDVPESRNNCRLIVYQEPTDGNSFSLSQEVLRHIRQEEKEEVTMNAPMTSVAPPPSVLSQEPRLLISGMDQPLPLRTDLI
notes: Runs as a dimer (~60 kDa) without cGAMP and as a tetramer (~120 kDa) with cGAMP; Entries with this molecule as both partners are self-association; also called mouse STINGΔTM; recombinant transmembrane-deficient STING
[3]
  particle diameter (TEM): ~14 nm
[4]
  binding result: binds
[5]; 24 h post-transfection
  co-localization with LAMP1: co-localization with Lysosomal Associated Membrane Protein 1 (LAMP1) at 24 h post-transfection
[5]; [7]
  co-localization with Early Endosome Antigen 1 (EEA1): limited co-localization
  co-localization with TBK1: co-localization of TBK1 with STINGΔTM in punctate structures
[5]; with or without the addition of BFA
  co-localization with the Golgi apparatus: no significant evidence of STINGΔTM co-localization with the Golgi apparatus

B2: mouse STINGΔTM Q272A/A276Q (other)
chain: B1 chain with Q135A, A139Q
notes: Expressed His-tagged; also called Q272A/A276Q mutant; functional double mutant at the tetramer interface
[6]
  binding result: binds

B3: mSTINGΔTM R237A-Y239A (other)
chain: B1 chain with R100A, Y102A
notes: Expressed His-tagged; also called STINGΔTM R238A/Y240A; R237A/Y239A mutant STINGΔTM
[4]
  binding result: binds
